Data as given in PMC2700392 (The Journal of Cell Biology, 2009).

Molecular target: Nup170p (recombinant, released from GST by thrombin) (S. cerevisiae, UniProt P38181 1-1502)
Test: pull-down

Chain of Nup170p (recombinant, released from GST by thrombin) (P38181 whole entry): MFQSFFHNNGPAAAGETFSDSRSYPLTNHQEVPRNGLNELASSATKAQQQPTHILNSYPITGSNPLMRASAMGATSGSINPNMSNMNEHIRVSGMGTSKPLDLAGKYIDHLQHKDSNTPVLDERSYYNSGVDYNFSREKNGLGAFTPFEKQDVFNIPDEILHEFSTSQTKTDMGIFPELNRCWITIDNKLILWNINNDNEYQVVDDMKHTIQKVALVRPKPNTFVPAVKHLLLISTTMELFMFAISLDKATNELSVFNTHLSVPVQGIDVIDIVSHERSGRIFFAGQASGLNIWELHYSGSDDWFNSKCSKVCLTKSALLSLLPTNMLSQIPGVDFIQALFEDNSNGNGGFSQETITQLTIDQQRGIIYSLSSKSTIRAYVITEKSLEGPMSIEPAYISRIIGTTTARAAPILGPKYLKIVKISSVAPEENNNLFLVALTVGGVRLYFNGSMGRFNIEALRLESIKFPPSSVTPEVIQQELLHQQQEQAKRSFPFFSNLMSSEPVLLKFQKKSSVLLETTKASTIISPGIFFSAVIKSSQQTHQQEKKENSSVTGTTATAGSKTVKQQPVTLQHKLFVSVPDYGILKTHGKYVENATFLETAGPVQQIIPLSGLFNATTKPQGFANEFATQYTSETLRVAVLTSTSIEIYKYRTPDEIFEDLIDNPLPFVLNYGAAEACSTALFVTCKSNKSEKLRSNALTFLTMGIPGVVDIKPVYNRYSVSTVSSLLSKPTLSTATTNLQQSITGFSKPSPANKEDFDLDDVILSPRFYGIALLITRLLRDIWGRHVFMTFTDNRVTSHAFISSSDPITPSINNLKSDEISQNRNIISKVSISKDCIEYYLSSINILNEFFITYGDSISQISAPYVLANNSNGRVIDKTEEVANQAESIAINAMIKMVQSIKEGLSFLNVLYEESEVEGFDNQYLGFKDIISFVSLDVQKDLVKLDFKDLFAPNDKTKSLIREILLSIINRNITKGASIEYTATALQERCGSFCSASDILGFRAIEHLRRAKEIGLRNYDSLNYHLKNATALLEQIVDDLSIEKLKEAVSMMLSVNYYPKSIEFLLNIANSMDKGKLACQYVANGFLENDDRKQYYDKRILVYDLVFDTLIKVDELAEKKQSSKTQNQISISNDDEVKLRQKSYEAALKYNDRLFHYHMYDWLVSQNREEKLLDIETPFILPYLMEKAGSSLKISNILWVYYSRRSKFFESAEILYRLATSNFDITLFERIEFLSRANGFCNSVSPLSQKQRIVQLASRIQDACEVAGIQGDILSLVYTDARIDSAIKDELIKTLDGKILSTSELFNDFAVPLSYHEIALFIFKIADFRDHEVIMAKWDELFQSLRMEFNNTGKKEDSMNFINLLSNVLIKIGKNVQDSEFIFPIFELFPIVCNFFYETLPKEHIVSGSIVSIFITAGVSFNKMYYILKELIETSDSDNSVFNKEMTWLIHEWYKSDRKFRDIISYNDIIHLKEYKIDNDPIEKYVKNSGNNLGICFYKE

B1: GST-Pom152p^1-111 (domain or fragment, S. cerevisiae, UniProt P39685 1-111, looked up)
chain: MEHRYNVFNDTPRGNHWMGSSVSGSPRPSYSSRPNVNTTRRFQYSDDEPAEKIRPLRSRSFKSTESNISDEKSRISERDSKDRYINGDKKVDIYSLPLISTDVLEISKQRT
binding result: binds
